From patent US20230287372 come the findings set out here.

What all share (experiment): cell_activity
One series has as its system SeqID63 (WO2019/030695). The following applies: PAM TTTA.
The next series has as its system SuCms1. As to conditions: PAM TTTA.
The subject of series [1] is T1, BEC10 (Artificial (engineered chimeric Cms1-like CRISPR nuclease)).
T1 sequence: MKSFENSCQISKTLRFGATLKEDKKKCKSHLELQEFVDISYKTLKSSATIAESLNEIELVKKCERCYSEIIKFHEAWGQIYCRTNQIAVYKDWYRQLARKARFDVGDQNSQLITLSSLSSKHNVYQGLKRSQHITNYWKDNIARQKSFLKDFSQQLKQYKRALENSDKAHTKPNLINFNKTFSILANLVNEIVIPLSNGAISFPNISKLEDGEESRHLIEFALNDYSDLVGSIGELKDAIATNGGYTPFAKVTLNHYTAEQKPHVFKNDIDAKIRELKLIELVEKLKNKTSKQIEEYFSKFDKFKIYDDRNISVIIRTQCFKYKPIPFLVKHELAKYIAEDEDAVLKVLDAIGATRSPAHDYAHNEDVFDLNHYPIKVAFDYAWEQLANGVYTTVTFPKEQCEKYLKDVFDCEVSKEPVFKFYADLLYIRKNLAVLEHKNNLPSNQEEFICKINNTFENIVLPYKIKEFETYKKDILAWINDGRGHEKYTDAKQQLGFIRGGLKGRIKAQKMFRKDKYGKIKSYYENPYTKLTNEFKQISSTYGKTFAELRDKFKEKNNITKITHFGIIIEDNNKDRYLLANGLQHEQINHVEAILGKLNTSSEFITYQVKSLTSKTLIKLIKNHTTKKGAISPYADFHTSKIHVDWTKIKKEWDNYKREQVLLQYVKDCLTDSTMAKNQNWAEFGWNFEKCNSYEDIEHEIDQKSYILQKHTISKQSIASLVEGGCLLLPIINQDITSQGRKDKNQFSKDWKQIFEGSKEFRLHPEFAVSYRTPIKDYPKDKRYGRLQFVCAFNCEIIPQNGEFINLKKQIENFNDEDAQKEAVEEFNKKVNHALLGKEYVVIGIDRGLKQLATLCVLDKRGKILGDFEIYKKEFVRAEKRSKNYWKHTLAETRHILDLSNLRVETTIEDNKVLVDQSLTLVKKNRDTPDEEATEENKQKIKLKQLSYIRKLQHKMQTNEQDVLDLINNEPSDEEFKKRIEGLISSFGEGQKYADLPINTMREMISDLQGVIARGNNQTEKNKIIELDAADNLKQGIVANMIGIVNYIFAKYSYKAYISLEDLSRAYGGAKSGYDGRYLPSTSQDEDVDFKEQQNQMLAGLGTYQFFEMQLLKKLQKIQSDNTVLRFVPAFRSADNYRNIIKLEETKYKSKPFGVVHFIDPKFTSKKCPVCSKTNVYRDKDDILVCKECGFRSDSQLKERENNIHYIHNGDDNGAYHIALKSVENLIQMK
The following applies: no-spacer negative control; 30 C.

The test system of series [2] is T2, BEC67 (Artificial (engineered chimeric Cms1-like CRISPR nuclease)).
T2 sequence: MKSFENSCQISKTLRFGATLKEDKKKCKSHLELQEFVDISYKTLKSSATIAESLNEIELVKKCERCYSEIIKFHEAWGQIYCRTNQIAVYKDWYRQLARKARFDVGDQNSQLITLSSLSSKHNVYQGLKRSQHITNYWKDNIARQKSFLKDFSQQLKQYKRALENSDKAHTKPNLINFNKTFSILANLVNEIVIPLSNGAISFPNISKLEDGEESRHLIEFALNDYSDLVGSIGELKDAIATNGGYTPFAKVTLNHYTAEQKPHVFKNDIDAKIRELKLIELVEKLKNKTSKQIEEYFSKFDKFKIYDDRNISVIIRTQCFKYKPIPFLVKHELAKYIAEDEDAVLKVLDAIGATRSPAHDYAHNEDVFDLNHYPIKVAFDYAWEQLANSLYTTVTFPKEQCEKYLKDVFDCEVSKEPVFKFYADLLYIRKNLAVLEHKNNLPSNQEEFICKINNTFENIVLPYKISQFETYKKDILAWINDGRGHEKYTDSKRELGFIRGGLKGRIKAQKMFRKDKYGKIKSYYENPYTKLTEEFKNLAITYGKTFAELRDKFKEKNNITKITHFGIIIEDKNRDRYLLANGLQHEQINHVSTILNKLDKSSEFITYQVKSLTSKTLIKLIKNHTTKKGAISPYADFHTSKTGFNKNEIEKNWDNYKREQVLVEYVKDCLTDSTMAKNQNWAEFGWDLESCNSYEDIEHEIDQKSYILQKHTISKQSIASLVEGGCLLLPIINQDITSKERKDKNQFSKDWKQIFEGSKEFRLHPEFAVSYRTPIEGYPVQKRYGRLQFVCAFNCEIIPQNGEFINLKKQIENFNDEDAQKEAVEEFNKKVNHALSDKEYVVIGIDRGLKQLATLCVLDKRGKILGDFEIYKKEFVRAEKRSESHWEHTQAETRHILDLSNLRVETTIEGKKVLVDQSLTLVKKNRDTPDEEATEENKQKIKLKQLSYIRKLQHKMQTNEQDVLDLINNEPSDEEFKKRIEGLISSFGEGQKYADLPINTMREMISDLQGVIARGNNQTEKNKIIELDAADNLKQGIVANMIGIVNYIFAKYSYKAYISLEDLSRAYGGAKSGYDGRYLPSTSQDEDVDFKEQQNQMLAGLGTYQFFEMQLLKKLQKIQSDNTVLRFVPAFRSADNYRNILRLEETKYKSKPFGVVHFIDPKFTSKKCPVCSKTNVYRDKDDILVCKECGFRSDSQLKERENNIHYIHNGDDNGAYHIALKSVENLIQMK
The following applies: no-spacer negative control; 30 C.

The test system of series [3] is T3, BEC85 (Artificial (engineered chimeric Cms1-like CRISPR nuclease)).
T3 sequence: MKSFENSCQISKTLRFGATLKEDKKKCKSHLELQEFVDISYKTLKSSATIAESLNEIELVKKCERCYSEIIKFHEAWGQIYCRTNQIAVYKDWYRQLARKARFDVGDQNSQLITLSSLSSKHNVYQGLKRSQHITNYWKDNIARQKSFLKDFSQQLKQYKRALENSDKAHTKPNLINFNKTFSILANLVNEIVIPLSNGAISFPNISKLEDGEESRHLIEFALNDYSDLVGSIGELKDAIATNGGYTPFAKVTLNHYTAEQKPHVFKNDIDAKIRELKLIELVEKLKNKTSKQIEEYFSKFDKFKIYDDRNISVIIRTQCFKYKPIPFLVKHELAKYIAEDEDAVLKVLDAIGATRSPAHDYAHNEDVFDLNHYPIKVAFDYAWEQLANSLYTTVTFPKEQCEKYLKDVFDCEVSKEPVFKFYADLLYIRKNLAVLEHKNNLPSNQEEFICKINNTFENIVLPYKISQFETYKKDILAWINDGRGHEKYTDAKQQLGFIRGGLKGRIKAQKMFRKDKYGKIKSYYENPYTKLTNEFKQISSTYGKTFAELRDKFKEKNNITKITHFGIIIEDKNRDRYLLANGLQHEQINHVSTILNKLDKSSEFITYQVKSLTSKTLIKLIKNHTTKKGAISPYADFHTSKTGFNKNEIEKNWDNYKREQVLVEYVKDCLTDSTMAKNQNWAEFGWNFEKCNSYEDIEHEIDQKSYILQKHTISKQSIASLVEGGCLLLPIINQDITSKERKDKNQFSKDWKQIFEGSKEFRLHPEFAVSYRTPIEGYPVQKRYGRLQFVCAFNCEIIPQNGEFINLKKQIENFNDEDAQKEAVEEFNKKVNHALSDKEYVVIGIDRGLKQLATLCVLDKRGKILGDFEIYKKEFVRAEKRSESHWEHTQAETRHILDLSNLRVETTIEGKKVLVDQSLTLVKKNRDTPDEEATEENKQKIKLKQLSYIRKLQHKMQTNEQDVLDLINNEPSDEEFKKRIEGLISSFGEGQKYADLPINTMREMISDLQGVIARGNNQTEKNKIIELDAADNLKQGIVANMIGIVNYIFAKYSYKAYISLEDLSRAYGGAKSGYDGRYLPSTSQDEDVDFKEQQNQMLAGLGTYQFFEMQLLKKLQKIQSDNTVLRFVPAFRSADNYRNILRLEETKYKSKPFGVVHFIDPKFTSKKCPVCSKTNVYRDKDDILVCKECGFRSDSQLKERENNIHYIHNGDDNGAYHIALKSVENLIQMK
As to conditions: no-spacer negative control; 30 C.

“Ade2 gRNA for Cms1 comparators ; Ade2 target”: the activity (% editing efficiency) is 0.2 in the series on SeqID63 (WO2019/030695) (S. cerevisiae 21 C); 0.2 with SeqID63 (WO2019/030695) (S. cerevisiae 30 C, comparable to negative control); 0.3 in the series on SuCms1 (S. cerevisiae 21 C, near negative control); 5 in the series on SuCms1 (S. cerevisiae 30 C, 3% fully edited).

As to “gRNA cassette without spacer ; Ade2 target”, the activity (% editing efficiency) in series [1], in series [2] and in series [3] was 0.2 in each case.

For “rpoB gRNA for Cms1 comparators ; rpoB target”, the activity (% colony reduction) is 0 with SeqID63 (WO2019/030695) (E. coli depletion assay 37 C) and 72 in the series with SuCms1 (E. coli depletion assay 37 C).
